For the data set, the system named is MS2 coat protein. Description: apparent KD of MS2 coat protein; higher = weaker reporter binding. As to conditions: Eterna round: R107. On the procedure: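 RNA-MaP round R107: designed RNA switches with theophylline, tryptophan, arginine or FMN aptamers are transcribed on-chip within common flanks. They are titrated with SNAP-549-labelled MS2 coat protein in RNA-MaP buffer (100 mM Tris pH 7.5, 80 mM KCl, 4 mM MgCl2), without ligand or with the indicated ligand. Median apparent KD per design.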

[1] abbreviates: input ligand: theophylline 20 uM.
Setting [2] is: input ligand: theophylline 2 mM.
Setting [3] is: input ligand: tryptophan 2.4 mM.

With “ACGCCCAGGUAGGCUUAAUGGGAUAUGGAAGGAGCGCUGAUGCAAGCAGGUAGGUCGCCAACGGACAUGAGGAUCACCCAUGUAC [Same State - Arginine A (Freestyle 3)]”, the “apparent KD of MS2 coat protein” value was found to be 15.3 nM (input ligand: arginine 13.2 mM); 20.9 nM (input ligand: none); 22.3 nM under setting [1]; 23.8 nM under setting [2]; 19.5 nM under setting [3].
As to “ACGCUGAUUGAUUACAAUCAGCGAAAAGAUACCAGUGGGUAAUCCCACCCUUGGCAGCUUAAAUCUGAGGAUCACCCAGGUGGUA [TheoAS 19 #MS2Right #BothOrNeither #AlternativeMS2]”, the “apparent KD of MS2 coat protein” value is, setting by setting: (input ligand: arginine 13.2 mM) 153 nM; (input ligand: none) 253 nM; under setting [1], 382 nM; under setting [2], 376 nM; under setting [3], 728 nM.
“ACGGACAUGAGGAUCACCCAUGUGGCCGAAGGAGCGGGAAUUAACCCAGGUAGGUCGCGGAAAUUUUUUAAAUUAUUUUAAUUUU [Same State - Arginine A]”: the “apparent KD of MS2 coat protein” value reads like this: (input ligand: arginine 13.2 mM) 14.4 nM; (input ligand: none) 17.1 nM; under setting [1], 21.5 nM; under setting [2], 18.7 nM; under setting [3], 17.3 nM.
On to “ACGGAUCGGAAACGAUCCGCGGCGAGGGUGCGAGGACCGGUACGGCCGCCACUCGGGUAACAUGAGGAUCACCCAUGUCCGAAGA [ETA NuPACK+Vienna+Vienna2 #10 Same Structure]”, for which the “apparent KD of MS2 coat protein” value amounted to 35.8 nM (input ligand: arginine 13.2 mM); 55 nM (input ligand: none); 60.3 nM under setting [1]; 106 nM under setting [2]; 209 nM under setting [3].
In the same order, the values of “ACGUAAUGCAGAAGGAGCGUCUAUGUGUUACAUGAGGAUCACCCAUGUGUUAUGUUAUGUGGACAGGUAGGUCGCUGAAGUACGA [JR_SSArginiB_Sub005]” are 45 nM, 127 nM, 104 nM, 134 nM and 81 nM.
On the same counts, the results for “ACGUCCAGGUUAAUCGUGGGCAUGGUCGAUACCAGUAUUUUAAUCUACCCUUGGCAGCGACAUGAGGAUCACCCAUGUGCGAUGA [XTheo A #16]” are 13.8 nM, 16.4 nM, 17.9 nM, 40.1 nM and 16.9 nM.
Take “ACGUCCCGUUUACUCGUGGGUUAGGUCGAUACCAGUAUUCAAACUUACCCUUGGCAGCGACAUGAGGAUCACCCAUGUGCGAAGA [XTheo A #22]”: the “apparent KD of MS2 coat protein” value (input ligand: arginine 13.2 mM) was 19 nM, the “apparent KD of MS2 coat protein” value under setting [1] came to 22.9 nM and the “apparent KD of MS2 coat protein” value under setting [3] is 17.5 nM.
Consider “ACGUCCGGAUUACUCGUGGGCAUGGUCGAUACCAGUAUUUUAAUCUACCCUUGGCAGCGACAUGAGGAUCACCCAUGUGCGAUGA [XTheo A #20]”, for which the “apparent KD of MS2 coat protein” value was determined as 21.5 nM (input ligand: arginine 13.2 mM); 20.5 nM (input ligand: none); 41.6 nM under setting [1]; 41.3 nM under setting [2]; 21.8 nM under setting [3].
As for “ACUUCGCAUAGGAAAACUAUGUGAAGAAAUCGAGGACCGGUACGGCCGCCACUCGUCCUCAACAUGAGGAUCACCCAUGUAAUAA [Mat - Exclusion - Trytophan A - D5]”, the “apparent KD of MS2 coat protein” value runs as follows: (input ligand: arginine 13.2 mM) 21 nM; under setting [1], 24.3 nM; under setting [2], 23.9 nM.
On the same counts, the results for “AGAAUAUAGUCGGCCGCCACUCUACAAACAUGAGGAUCACCCAUGUUCACAUAGUGGAAACACAUGAGGACCGGGACAUAGGCAU [#17 Same State - Tryptophan B]” are 14 nM, 21.4 nM and 18.3 nM.
As to “AGAUUCGACACGGCCGCCACUUGUGGUGGAUUAUCCUAUGUAAGACAUGAGGAUCACCCAUGUACAAGGACCGGGUGUUGAGUCU [XTryp B #22]”, the “apparent KD of MS2 coat protein” value runs as follows: (input ligand: arginine 13.2 mM) 108 nM; under setting [1], 336 nM; under setting [2], 385 nM.
For the sequence “AGCACUGUGACGGCCGCCACUACAUAAGAUGGGUGGUCAGGUUCAUUACAUGAGGAUCACCCAUGUAGGACCGGGUCUCAGUGCA [Omei Trp Exc B A v10]”, the “apparent KD of MS2 coat protein” value (input ligand: arginine 13.2 mM) came to 7.97 nM; the “apparent KD of MS2 coat protein” value (input ligand: none) amounted to 9.29 nM; the “apparent KD of MS2 coat protein” value under setting [1] worked out at 16.5 nM; the “apparent KD of MS2 coat protein” value under setting [2] came out at 10.9 nM; the “apparent KD of MS2 coat protein” value under setting [3] is 7.71 nM.
Regarding “AGCACUGUGACGGCCGCCACUACAUAUAGGGUGGUCAGGUUCAUAAUACAUGAGGAUCACCCAUGUAGGACCGGGUCUCAGUGCA [Omei Trp Exc B A v5]”, the “apparent KD of MS2 coat protein” value is, setting by setting: (input ligand: arginine 13.2 mM) 12.5 nM; under setting [1], 14.6 nM; under setting [2], 14.6 nM.
With “AGCAUGUUCAGAAGGAGCGUGCAAGGGUACAUUCGUAGGACAUGAGGAUCACCCAUGUAAGCACAGGUAGGUCGCUGGACAUGCU [Arg B SS t5]”, the “apparent KD of MS2 coat protein” value by setting is: (input ligand: arginine 13.2 mM) 71.1 nM; (input ligand: none) 98.7 nM; under setting [1], 82.4 nM; under setting [2], 129 nM; under setting [3], 107 nM.
For the sequence “AGCCACUCGAGUGAUCCUCACGAGUGGCUACGAGGACCGGUACGGCCGCCACUCGAAUUAACAUGAGGAUCACCCAUGUAAUCUA [Brourdmod07]”, the “apparent KD of MS2 coat protein” value runs as follows: (input ligand: arginine 13.2 mM) 22.5 nM; under setting [1], 227 nM; under setting [2], 196 nM.
As to “AGCCAUGGAAACAUGGCGGCGGCAUGAGCGCGAGGACCGGUACGGCCGCCACUCGGGCAACAUGAGGAUCACCCAUGUUCCUCAU [ETA NP+V+V2 #20 +-Same Structure]”, the “apparent KD of MS2 coat protein” value was 62.5 nM (input ligand: arginine 13.2 mM); 101 nM (input ligand: none); 140 nM under setting [1]; 158 nM under setting [2]; 363 nM under setting [3].
